Assay results published in US20190338048A1.
Like-named read-outs stand apart in the source and are kept apart here. Blank lines part the entries; values can stand above or below the substance they belong to.

What was measured:
[1] = target: Pertuzumab kappa light chain V133I_L135A_S176D_T178E; assay: LCCA, SPR tag read-out
[2] = target: Pertuzumab kappa light chain S121K_S176E_T178E; assay: LCCA
[3] = target: CAT-2200 lambda light chain S122D_E124Q_T131R; assay: LCCA, SPR tag read-out
[4] = target: Pertuzumab kappa light chain S121K_S131D_V133G_T178F; assay: LCCA, SPR tag read-out
[5] = target: Pertuzumab kappa light chain S121K_V133I_S176D_T178E; assay: LCCA, SPR tag read-out
[6] = target: CAT-2200 lambda light chain S122D_E124Q_T131R; assay: LCCA, SPR tag read-out; remark: listed apart in the source
[7] = target: CAT-2200 lambda light chain S122D_K129T_S180E; assay: LCCA
[8] = target: Pertuzumab kappa light chain S121K_Q124R_Q160K_T178R; assay: LCCA
[9] = target: Pertuzumab kappa light chain S121K_Q124R_T178R; assay: LCCA
[10] = target: CAT-2200 lambda light chain S122D_K129T_S180E; assay: LCCA; remark: listed apart in the source
[11] = target: CAT-2200 lambda light chain S122D_K129T_S176D_Y178T; assay: LCCA, SPR tag read-out
[12] = target: CAT-2200 lambda light chain S122D_K129T_S176E_Y178E; assay: LCCA, SPR tag read-out
[13] = target: CAT-2200 lambda light chain S122D_K129T_V133D; assay: LCCA, SPR tag read-out
[14] = target: Pertuzumab kappa light chain S121K_Q124R_T178R; assay: LCCA, SPR tag read-out
[15] = target: Pertuzumab kappa light chain S121K_Q124R_T178R; assay: LCCA, SPR tag read-out; remark: listed apart in the source
[16] = target: Pertuzumab kappa light chain S121K_Q124R_T178R; assay: LCCA, SPR tag read-out; remark: listed apart in the source
[17] = target: Pertuzumab kappa light chain Q124R_L135W_Q160K_T178R; assay: LCCA
[18] = target: Pertuzumab kappa light chain Q124R_L135W_Q160K_T178R; assay: LCCA, SPR tag read-out
[19] = target: Pertuzumab kappa light chain Q124R_L135W_T178R; assay: LCCA, SPR tag read-out
[20] = target: Pertuzumab kappa light chain Q124R_Q160R_T178R; assay: LCCA, SPR tag read-out
[21] = target: Pertuzumab kappa light chain Q124R_T178R; assay: LCCA, SPR tag read-out
[22] = target: Pertuzumab kappa light chain Q124R_L135W_T178R; assay: LCCA, SPR tag read-out; remark: listed apart in the source
[23] = target: Pertuzumab kappa light chain Q124R_T178R; assay: LCCA, SPR tag read-out; remark: listed apart in the source
[24] = target: Pertuzumab kappa light chain Q124R_T178R; assay: LCCA, SPR tag read-out; remark: listed apart in the source
[25] = target: Pertuzumab kappa light chain Q124R_T178R; assay: LCCA, SPR tag read-out; remark: listed apart in the source
[26] = target: Pertuzumab kappa light chain Q124R_Q160R_T178R; assay: LCCA, SPR tag read-out; remark: listed apart in the source
[27] = target: Pertuzumab kappa light chain Q124R_T178R; assay: LCCA, SPR tag read-out; remark: listed apart in the source
[28] = target: Pertuzumab kappa light chain Q124R_L135W_T178R; assay: LCCA, SPR tag read-out; remark: listed apart in the source
[29] = target: CAT-2200 lambda light chain S122D_Y178K; assay: LCCA, SPR tag read-out
[30] = target: Pertuzumab kappa light chain S121K_V133G_S176D_T180E; assay: LCCA, SPR tag read-out
[31] = target: Pertuzumab kappa light chain S121K_V133G_S176D_T180E; assay: LCCA, SPR tag read-out; remark: listed apart in the source
[32] = target: Pertuzumab kappa light chain S121K_V133G_S176D_T180E; assay: LCCA, SPR tag read-out; remark: listed apart in the source
[33] = target: Pertuzumab kappa light chain Q124K_L135A_T178R; assay: LCCA
[34] = target: Pertuzumab kappa light chain Q124R_L135A_Q160K_T178R; assay: LCCA
[35] = target: CAT-2200 lambda light chain T116F_K129T_V133D_S176F; assay: LCCA, SPR tag read-out
[36] = target: Pertuzumab kappa light chain Q124R_L135A_T178R; assay: LCCA, SPR tag read-out
[37] = target: Pertuzumab kappa light chain Q124E_V133D; assay: LCCA, SPR
[38] = target: CAT-2200 lambda light chain E124Q_T131R; assay: LCCA, SPR
[39] = target: CAT-2200 lambda light chain E124Q_T131R; assay: LCCA, SPR tag read-out
[40] = target: Pertuzumab kappa light chain Q124E_V133D_L135W_T180D; assay: LCCA, SPR tag read-out
[41] = target: Pertuzumab kappa light chain Q124E_V133D_L135W; assay: LCCA, SPR tag read-out
[42] = target: Pertuzumab kappa light chain Q124E_V133D_T180D; assay: LCCA, SPR tag read-out
[43] = target: CAT-2200 lambda light chain E124Q_T131R; assay: LCCA, SPR tag read-out; remark: listed apart in the source
[44] = target: CAT-2200 lambda light chain Y178K; assay: LCCA
[45] = target: Pertuzumab kappa light chain Q124E_V133D_S176D_T178E; assay: LCCA
[46] = target: Pertuzumab kappa light chain Q124E_V133D_T178E; assay: LCCA
[47] = target: Pertuzumab kappa light chain Q124E_V133D_S176D_T178E; assay: LCCA; remark: listed apart in the source
[48] = target: Pertuzumab kappa light chain Q124E_V133D_T178E; assay: LCCA; remark: listed apart in the source
[49] = target: Pertuzumab kappa light chain Q124E_V133D_S176D_T178D; assay: LCCA, SPR tag read-out
[50] = target: Pertuzumab kappa light chain Q124E_V133D_S176D_T178E; assay: LCCA, SPR tag read-out
[51] = target: Pertuzumab kappa light chain V133G_L135A_S176D_T180E; assay: LCCA, SPR tag read-out
[52] = target: Pertuzumab kappa light chain S121K_Q124E_V133D_T180D; assay: LCCA, SPR tag read-out
[53] = target: Pertuzumab kappa light chain S121K_Q124E_V133D; assay: LCCA, SPR tag read-out

Substance: Pertuzumab Fab heavy chain S188K_V190F
H2L2:H2L1 median scalar value [1]: 0.88 ln(ratio)

Substance: Pertuzumab Fab heavy chain S188K_K228D
H2L2:H2L1 median scalar value [2]: 2.83 ln
H2L2:H2L1 normalized median ratio [3]: 53%
H2L2:H2L1 median scalar value [4]: -0.08 ln(ratio)
H2L2:H2L1 normalized median ratio [4]: 47%
H2L2:H2L1 median scalar value [5]: 1.74 ln(ratio)
H2L2:H2L1 normalized median ratio [5]: 85%
H2L2:H2L1 normalized median ratio [6]: 15%

Substance: Pertuzumab Fab heavy chain L143R
H2L2:H2L1 normalized median ratio [37]: 96%
H2L2:H2L1 normalized median scalar value ln(r1/f1) [37]: 3.06
H2L2:H2L1 normalized median ratio [38]: 4%
H2L2:H2L1 normalized median ratio [39]: 15%
H2L2:H2L1 median scalar value [40]: 0.87 ln(ratio)
H2L2:H2L1 median scalar value [41]: 2.13 ln(ratio)
H2L2:H2L1 normalized median ratio [41]: 89%
H2L2:H2L1 median scalar value [42]: 1.72 ln(ratio)
H2L2:H2L1 normalized median ratio [42]: 85%
H2L2:H2L1 normalized median ratio [43]: 11%

Substance: Pertuzumab Fab heavy chain L143R_S188K
H2L2:H2L1 normalized median ratio [44]: 22%
H2L2:H2L1 median scalar value [45]: -0.02 ln
H2L2:H2L1 median scalar value [46]: 1.31 ln
H2L2:H2L1 median scalar value [47]: 1.21 ln
H2L2:H2L1 median scalar value [48]: 1.45 ln
H2L2:H2L1 median scalar value [49]: 0.02 ln(ratio)
H2L2:H2L1 median scalar value [50]: 1.21 ln(ratio)

Substance: Pertuzumab Fab heavy chain L124R_S186K_V190F
H2L2:H2L1 median scalar value [51]: -0.44 ln(ratio)

Further lines, results first:

H2L2:H2L1 normalized median ratio [7]: 33%
H2L2:H2L1 median scalar value [8]: 1.15 ln
H2L2:H2L1 normalized median ratio [8]: 75%
H2L2:H2L1 median scalar value [9]: 0.72 ln
H2L2:H2L1 normalized median ratio [9]: 67%
H2L2:H2L1 normalized median ratio [10]: 25%
H2L2:H2L1 normalized median ratio [11]: 8%
H2L2:H2L1 normalized median ratio [12]: 5%
H2L2:H2L1 normalized median ratio [13]: 34%
H2L2:H2L1 median scalar value [14]: 3.5 ln(ratio)
H2L2:H2L1 normalized median ratio [14]: 95%
H2L2:H2L1 median scalar value [15]: 2.56 ln(ratio)
H2L2:H2L1 normalized median ratio [15]: 92%
H2L2:H2L1 median scalar value [16]: 1.1 ln(ratio)
H2L2:H2L1 normalized median ratio [16]: 66%
Substance: Pertuzumab Fab heavy chain L143E_K145T_Q179E_K228D

H2L2:H2L1 median scalar value [17]: 0.77 ln
H2L2:H2L1 median scalar value [18]: 2.02 ln(ratio)
H2L2:H2L1 median scalar value [19]: 2.64 ln(ratio)
H2L2:H2L1 median scalar value [20]: 2.79 ln(ratio)
H2L2:H2L1 median scalar value [21]: 3.52 ln(ratio)
H2L2:H2L1 median scalar value [22]: 2.54 ln(ratio)
H2L2:H2L1 median scalar value [23]: 3.01 ln(ratio)
H2L2:H2L1 median scalar value [24]: 2.74 ln(ratio)
H2L2:H2L1 median scalar value [25]: 3.1 ln(ratio)
H2L2:H2L1 median scalar value [26]: 2.58 ln(ratio)
H2L2:H2L1 median scalar value [27]: 3.63 ln(ratio)
H2L2:H2L1 median scalar value [28]: 2.68 ln(ratio)
Substance: Pertuzumab Fab heavy chain L143E_K145T_Q179E

H2L2:H2L1 normalized median ratio [29]: 34%
H2L2:H2L1 median scalar value [30]: 1.83 ln(ratio)
H2L2:H2L1 normalized median ratio [30]: 66%
H2L2:H2L1 median scalar value [31]: -0.49 ln(ratio)
H2L2:H2L1 median scalar value [32]: -0.52 ln(ratio)
Substance: Pertuzumab Fab heavy chain L124R_S186R_K228D

H2L2:H2L1 median scalar value [33]: -0.51 ln
H2L2:H2L1 median scalar value [34]: -0.29 ln
H2L2:H2L1 normalized median ratio [35]: 27%
H2L2:H2L1 median scalar value [36]: 0.99 ln(ratio)
H2L2:H2L1 normalized median ratio [36]: 73%
Substance: Pertuzumab Fab heavy chain L143E_K145T_Q179E_V190F

H2L2:H2L1 normalized median ratio [3]: 26%
H2L2:H2L1 median scalar value [52]: -0.2 ln(ratio)
H2L2:H2L1 median scalar value [53]: 1.08 ln(ratio)
H2L2:H2L1 normalized median ratio [53]: 74%
Substance: Pertuzumab Fab heavy chain L143R_K228D
